Laboratory results taken from the supplement of paper PMC10126150.
± gives the standard deviation of the averaged measurements.

Tested on: ATP
Test: switch fluorescence ratio, 500 uM ATP over buffer (Cy3 cluster intensity, sum of 5 cycles each) (fold (ratio)); higher = stronger signal-on switching upon ATP binding; sequences stand for … in TCGTCGGCAGCGTCAGATGTGTATAAGAGACAGTTTTTTTTTTTTTTTTTTTTTTTTT…TC
Conditions: aptamer strand: ATP DNA aptamer (quencher-CACCTGGGGGAGTATTGCGGAGGAAGG + anchor), 100 nM annealed; ATP concentration: 500 uM
Summary of the method: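 Five buffer/ATP imaging cycles were run on Cy3-labelled switching-strand clusters on a modified Illumina MiSeq flow-cell, with NaOH stripping and re-annealing between cycles. In each cycle, clusters annealed to 100 nM quencher-labelled ATP aptamer were imaged in selection buffer, then after 15 min with 500 uM ATP at 22 °C. Per cluster, the fluorescence ratio is summed target-cycle over summed buffer-cycle Cy3 intensity, averaged per switch-domain sequence. Only clusters within 100-1000 RFU were kept.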
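Further: ATP exposure 15 min at 22 °C before imaging.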

Row | Sequence | switch fluorescence ratio
1 | GGTTGGGGCA | 0.985 ± 0.049
2 | TAGGATTTTG | 0.985 ± 0.033
3 | AGGTATTGGA | 0.985 ± 0.015
4 | TTGAGGTACT | 0.971 ± 0.052
5 | AGCGGATGTG | 0.978 ± 0.027
6 | TTGCGAGAGA | 0.993 ± 0.035
7 | CGTTTTAGAG | 1.01 ± 0.016
8 | GGGTATCGTA | 1.01 ± 0.018
9 | TTAGGGAATG | 1 ± 0.07
10 | GGGGGGCGTG | 0.993 ± 0.027
11 | CGGGATAGGC | 1.12 ± 0.02
12 | GTAGCGATAG | 4.13 ± 2.2
13 | GCTCGAACGA | 0.995 ± 0.013
14 | ATATTCTTCC | 1.96 ± 0.18
15 | TATAAAGGGT | 1.02 ± 0.055
16 | GGGTGTGTGG | 1 ± 0.017
17 | ATTCGTCAAT | 1.18 ± 0.13
18 | GTATTCGGTG | 0.982 ± 0.045
19 | TAGAAGTGCG | 1.01 ± 0.041
20 | ACTCTTATCG | 1.02 ± 0.054
21 | CGGGGTTCGT | 0.983 ± 0.028
22 | ATGGTTTATA | 0.977 ± 0.045
23 | TTCGGCGCGG | 1.21 ± 0.32

Row | Sequence | switch fluorescence ratio
24 | TAGGACGTGG | 0.988 ± 0.061
25 | AGCTGGTCCG | 1.02 ± 0.022
26 | GGGTAGAAAG | 0.97 ± 0.013
27 | TATGCATTGT | 1.01 ± 0.017
28 | AGGCGGGTGA | 1.02 ± 0.013
29 | GGTTCGGGGT | 0.982 ± 0.012
30 | GACTTTGTTC | 0.983 ± 0.012
31 | AGAGTGGGTG | 0.978 ± 0.013
32 | GTTCCTCATT | 1.45 ± 0.61
33 | GGGCAACGAC | 1.07 ± 0.0093
34 | CCAGAATTCG | 0.98 ± 0.024
35 | ATTAAGAGGT | 1.034 ± 0.0075
36 | TTCTTTTAAT | 0.98998 ± 0.0005
37 | TTTAATAAAG | 1.02 ± 0.041
38 | TTTCCGGTTT | 1.6 ± 1.1
39 | GGTGAACCGT | 1.001 ± 0.0046
40 | GGTGGGTACG | 0.986 ± 0.052
41 | ATACGTAGTC | 1.07 ± 0.014
42 | TGTGTGCAAT | 1.0784 ± 0.001
43 | AGGCGCGGGT | 0.998 ± 0.069
44 | TGTTGGTTCG | 0.97 ± 0.062
45 | GTAGTGGGGG | 0.975 ± 0.027
46 | CGAGTAGAAT | 1.06 ± 0.065

Row | Sequence | switch fluorescence ratio
47 | TAAGGAGTGG | 1.03 ± 0.073
48 | TTAATTAATG | 1.05 ± 0.089
49 | TTAGGCCGGC | 0.988 ± 0.11
50 | TTTTATGTTG | 1.01 ± 0.04
51 | AGGAAAAAGG | 0.974 ± 0.034
52 | GAAATATTAG | 1.02 ± 0.032
53 | GGGTATGTAA | 1.01 ± 0.066
54 | ACCTCGGACC | 1.09 ± 0.022
55 | TGGTCGGCTG | 1.007 ± 0.0044
56 | GGAGGAGTGT | 0.959 ± 0.037
57 | TGAGCGGTCA | 0.99 ± 0.015
58 | ATATTGCTGA | 0.978 ± 0.078
59 | TACAGTTGGC | 1.03 ± 0.084
60 | CATAATCAGG | 1.04 ± 0.03
61 | TGGGTTCGGC | 0.9808 ± 0.0045
62 | ATATTTTGTA | 0.983 ± 0.036
63 | CTAGCCGGGA | 1.017 ± 0.009
64 | GCATGGGTAG | 0.982 ± 0.018
65 | ATAAGGGGGA | 0.998 ± 0.022
66 | TTCAGGCCTT | 1.04 ± 0.059
67 | TCATATGGTG | 1.03 ± 0.038
68 | TGCTGGGGGC | 0.971 ± 0.022
69 | GTTGACCGGC | 0.996 ± 0.011

Row | Sequence | switch fluorescence ratio
70 | TATTGTCTTT | 1.02 ± 0.025
71 | ACAGTCAAGG | 1.02 ± 0.035
72 | TTTGCTCAGG | 1.09 ± 0.037
73 | GGGGATGCGG | 1.02 ± 0.021
74 | TTGGATCCGC | 1.32 ± 0.45
75 | GGACCATATC | 1.07 ± 0.017
76 | GTGAGCCAGT | 1.01 ± 0.022
77 | CGATGGCTGG | 0.976 ± 0.027
78 | GTTTTGTAAA | 0.975 ± 0.026
79 | CGGAATTCAC | 1.39 ± 0.017
80 | CTTGTAAAGG | 0.9825 ± 0.00043
81 | AGCTTTTCTT | 1.03 ± 0.017
82 | GTGGGGTGTG | 1.01 ± 0.021
83 | GTTGGAGCCT | 0.995 ± 0.065
84 | TCCGTTGGCT | 1.07 ± 0.062
85 | TTGAAGATAA | 1.02 ± 0.033
86 | GCCAATTTGC | 1.02 ± 0.07
87 | CGTTGTCATT | 0.972 ± 0.036
88 | GGGACAGCAT | 0.996 ± 0.029
89 | CGGAAAGAAG | 0.989 ± 0.046
90 | TTTTTTCTAC | 1.31 ± 0.67
91 | CTGTGGGGGG | 0.9869 ± 0.0097
92 | CTAGTTAAGC | 0.9892 ± 0.0035

Row | Sequence | switch fluorescence ratio
93 | TATTTTCTCA | 1.05 ± 0.049
94 | AATAATAGCT | 1.01 ± 0.041
95 | TGACAGTATC | 1.08 ± 0.011
96 | GATATGATAC | 1.077 ± 0.008
97 | CGATGGTCGT | 0.975 ± 0.028
98 | GCTGGGTAGT | 1.01 ± 0.022
99 | GGTCCTACTG | 1.01 ± 0.017
100 | TTTTCTTATG | 0.96 ± 0.013
101 | GGTGCTACAC | 1.04 ± 0.025
102 | TTTGGGAAAT | 1.07 ± 0.1
103 | GTGGTCAGGG | 0.9855 ± 0.0092
104 | TTTGTGCCGG | 1.012 ± 0.007
105 | CAATCAATCG | 1.05 ± 0.017
106 | TATTTGGTCG | 1.02 ± 0.047
107 | CAGGATTGTT | 1.02 ± 0.04
108 | ACTGGGCCTT | 1.031 ± 0.0083
109 | GTGGAGTAAG | 1.01 ± 0.023
110 | TAATTTTAGG | 0.996 ± 0.012
111 | GGTCTGTATT | 0.972 ± 0.012
112 | TCCTGAATGA | 1 ± 0.03
113 | AAACGCGTTG | 0.9955 ± 0.0011
114 | GCGTGTTGTG | 1.02 ± 0.018
115 | TTGGGGGATT | 1 ± 0.022

Row | Sequence | switch fluorescence ratio
116 | AAGGAGGGGT | 0.9968 ± 0.0081
117 | GAAACATACG | 1.33 ± 0.026
118 | AAAAGTCAAT | 1.004 ± 0.0089
119 | ATTGGGGTTG | 1 ± 0.017
120 | TTTGTGTGGC | 0.99 ± 0.084
121 | TTGGAAGTGC | 1 ± 0.056
122 | TTAAAGTCGT | 1.01 ± 0.026
123 | AAAAGGTTGG | 0.997 ± 0.015
124 | TCACGTTTAG | 1.03 ± 0.011
125 | ATTATGCTTT | 1 ± 0.021
126 | GACTGCTGTG | 1.012 ± 0.0085
127 | GAAAAAAGGG | 1.11 ± 0.11
128 | GATTTTCGAG | 0.994 ± 0.031
129 | CAACTGGTAT | 1.17 ± 0.26
130 | AATTAAAAGT | 0.989 ± 0.017
131 | TTTGGGTAAT | 1.21 ± 0.39
132 | AGTGGATTGG | 1.01 ± 0.045
133 | TGTTTTTATA | 1.005 ± 0.0091
134 | TGTTGGAGGC | 0.9713 ± 0.0072
135 | GTTAAAGGGT | 1.01 ± 0.0075
136 | CTTTTCGGCT | 1.04 ± 0.028
137 | TCCTAACTTG | 1.01 ± 0.014
138 | TTGGTAAGAC | 1.14 ± 0.12

Row | Sequence | switch fluorescence ratio
139 | GGTCGCGGAT | 1.01 ± 0.019
140 | TAGAAGGAAA | 0.9997 ± 0.0017
141 | TGGGTAATCC | 1.03 ± 0.025
142 | CGCCATAGTG | 1.01 ± 0.039
143 | GGGTTGCTTG | 0.981 ± 0.049
144 | TGTGATAGTG | 0.999 ± 0.053
145 | TGGGACAAGC | 0.979 ± 0.032
146 | GGGGGGAAGG | 1.01 ± 0.03
147 | ATGGGGGAA | 0.997 ± 0.042
148 | ATTGAAGCTT | 1.009 ± 0.0089
149 | TTTTGACCGT | 0.973 ± 0.037
150 | AATGGCGCGA | 1.02 ± 0.054
151 | GGGGTTCTTT | 1.09 ± 0.14
152 | TGTTATAATT | 1 ± 0.0048
153 | TTGCGGGGTG | 1.01 ± 0.045
154 | CGGCAGTATC | 1.51 ± 0.12
155 | CGTGTATGTG | 0.969 ± 0.043
156 | GAGTGCTTGG | 0.973 ± 0.022
157 | TTCATATACT | 1.06 ± 0.034
